{
  "source": "paper PMC10582422",
  "about": "“Alzheimer's Progenitor Amyloid‐β Targets and Dissolves Microbial Amyloids and Impairs Biofilm Function” (Advanced Science, 2023)",
  "key": {"P. aeruginosa PAO1": {"tested_on": "P. aeruginosa PAO1", "assay": "Antimicrobial sensitivity assay (MBEC peg biofilm), PAO1", "type": "cell-based", "details": "combined with Pen", "protocol": "(§1) Microbial culture of K12 and PAO1 were added to 96‐well plates at OD 0.3 and incubated overnight at the static condition at 37 °C with Minimum Biofilm Eradication Concentration (MBEC) peg lids (Innovotech, Edmonton, Canada) where biofilms were formed on the pegs. […] After overnight incubation in the challenge plate, peg lids were removed, and swabs of the culture were picked from the pegs and streaked onto LB agar plates. The plates were incubated overnight at 37 °C and surviving colonies were confirmed by visual inspection and counted with the software Promega Colony Counter."}, "E. coli K‐12": {"tested_on": "E. coli K‐12", "assay": "Antimicrobial sensitivity assay (MBEC peg biofilm), K-12", "type": "cell-based", "details": "combined with Pen", "protocol": "as §1"}, "CsgA fibrils [1]": {"molecular_target": "T1, CsgA fibrils (Escherichia coli, UniProt P28307)", "T1 construct": "made in house; host or cells: E. coli", "T1 sequence (P28307 21-151)": "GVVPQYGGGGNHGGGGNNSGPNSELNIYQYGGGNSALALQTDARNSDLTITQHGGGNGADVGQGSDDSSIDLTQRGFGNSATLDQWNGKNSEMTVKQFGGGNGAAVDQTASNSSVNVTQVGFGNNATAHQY", "type": "biochemical, E. coli", "details": "DLS, incubated without Aβ, as for TEM; n = 3", "protocol": "(§2) Quartz cells with low volume capacity (100 µL) were used and measurements were performed using a Malvern Zetasizer Nano Series running DTS software and using a 4 mW He−Ne laser operating at a wavelength of 633 nm and equipped with an avalanche photodiode (APD) detector. The scattered light was detected at an angle of 173°."}, "CsgA fibrils [2]": {"molecular_target": "T1, CsgA fibrils", "type": "biochemical, E. coli", "protocol": "(§3) The percentage secondary structure was calculated by the CD data via Dichroweb analysis with parameters of Contin/reference set 4."}, "Caco‐2 cells": {"tested_on": "Caco‐2 cells", "assay": "Cell adhesion of FapC and CsgA amyloids to Caco-2 cells", "type": "cell-based", "details": "Alexa647-labelled, 10 µM, 24 h", "protocol": "In comparison, FapC or CsgA amyloids alone (10 µM), labelled with Alexa647, were incubated with the cells under the same conditions. […] The cells were incubated for additional 24 h. All the cells in this experiment were fixed in 4% PFA, washed with PBS and then subjected to confocal imaging as described above. The size and number of the FapC or CsgA amyloids attached to the membrane of Caco‐2 cells were quantified from the images using Fiji ImageJ software."}, "Zeta potential": {"assay": "Zeta potential", "type": "physicochemical", "details": "Malvern Zetasizer Nano; fibrils"}, "FapC fibrils [3]": {"tested_on": "FapC fibrils", "assay": "ThT assay: disintegration of preformed FapC fibrils", "type": "biochemical, P. aeruginosa", "details": "1.8 – 15 µM against 50 µM FapC; ThT 72 h", "protocol": "FapC and CsgA fibrils were pre‐incubated with 50 µM of Thioflavin T dye for 3 h. […] The instrument was set to agitate the plate for 5 s before every reading. […]"}, "FapC fibrils [4]": {"tested_on": "FapC fibrils", "assay": "TEM of FapC fibrils incubated with peptide", "type": "biochemical, P. aeruginosa", "details": "TEM at 1, 2 and 3 weeks", "from_the_text": "The samples were blotted with filter paper and grids were blotted twice with deionized water and then a drop of 1% uranyl acetate was placed on the grids for 30 s for negative staining. […] […] TEM grids were imaged with a Hitachi HT7700 TEM operating at 120 kV."}, "Aβ": {"tested_on": "Aβ", "details": "cited from earlier work", "from_the_text": "Amyloid‐β (Aβ) is a peptide generated from the proteolytic cleavage of amyloid precursor protein (APP) expressed on the membrane and synapses of neurons. Based on the combination of enzymes that cleave APP, i.e., α‐, β‐ or γ‐secretase, the resulting Aβ can be a 40 (Aβ40) or 42 (Aβ42) residue peptide that is intrinsically disordered in structure.^[ [1] ^] Different environmental factors, familial mutations or localized concentrations of Aβ can trigger the aggregation of Aβ into oligomers. The oligomers can subsequently assemble into long twisted fibrils characterized by a so‐called amyloid fold ..."}, "FapC fibrils [5]": {"tested_on": "FapC fibrils", "assay": "DLS size of FapC fibrils", "type": "biochemical, P. aeruginosa", "details": "incubated without Aβ, as for TEM, n = 3", "protocol": "as §2"}, "FapC fibrils [6]": {"tested_on": "FapC fibrils", "assay": "CD spectroscopy of FapC fibrils", "type": "biochemical, P. aeruginosa", "protocol": "as §3"}, "FapC monomers": {"tested_on": "FapC monomers", "assay": "Self-seeding / fibrillization of FapC monomers (ThT, TEM)", "type": "biochemical, P. aeruginosa", "details": "FapC monomers 15 µM"}, "[7]": {"details": "CD, Dichroweb Contin/reference set 4, 50 µM"}},
  "data": [
    {"molecule": "[H]/N=C(/N)N[C@H]1[C@H](O)[C@@H](O)[C@H](O[C@@H]2O[C@@H](C)[C@](O)(C=O)[C@H]2O[C@@H]2O[C@@H](CO)[C@H](O)[C@@H](O)[C@@H]2NC)[C@@H](N/C(N)=N\\[H])[C@@H]1O", "note": "[Strep]", "values": [
      {"measurement": "minimum concentration with slight antimicrobial effect (Strep), PAO1", "setting": "P. aeruginosa PAO1", "result": "5e-06", "unit": "µg/mL"},
      {"measurement": "minimum concentration with slight antimicrobial effect (Strep), K-12", "setting": "E. coli K‐12", "result": "5e-06", "unit": "µg/mL"}
    ]},
    {"molecule": "CsgA: CsgA prepared recombinantly in E. coli; major subunit of the curli protein", "values": [
      {"measurement": "hydrodynamic radius of CsgA fibrils, without Aβ", "setting": "CsgA fibrils [1]", "result": "≈ 1500 nm"},
      {"measurement": "CD negative peak, CsgA fibrils alone", "setting": "CsgA fibrils [2]; 50 µM CsgA without Aβ, 48 h", "result": 214, "unit": "nm"},
      {"measurement": "β‐sheet content of CsgA fibrils, without Aβ", "setting": "CsgA fibrils [2]; [7]", "result": 42, "unit": "%"},
      {"measurement": "size of amyloid aggregates attached to Caco-2 membrane, without Aβ", "setting": "Caco‐2 cells", "result": "≈ 30 µm"},
      {"measurement": "zeta potential", "setting": "Zeta potential", "result": 37, "unit": "mV"}
    ]},
    {"molecule": "IAPP: human islet amyloid polypeptide (KCNTATCATQRLANFLVHSSNNFGAILSSTNVGSNTY; Islet amyloid polypeptide; UniProt P10997 34-70, looked up)", "values": [
      {"measurement": "disintegration of FapC amyloids by IAPP or aSyn", "setting": "FapC fibrils [3]", "result": "did not show any disintegration of FapC amyloids"},
      {"measurement": "TEM remodeling of FapC fibrils by IAPP or aSyn monomers", "setting": "FapC fibrils [4]", "result": "no remodeling effect was observed for FapC fibrils"}
    ]},
    {"molecule": "Solanezumab: monoclonal antibody in clinical trials", "values": [
      {"measurement": "efficacy in phase 3 trials", "setting": "Aβ; mild form of Alzheimer's disease, ref [6], [7]", "result": "some efficacy but not much promise in phase 3 trials"}
    ]},
    {"molecule": "FapC: FapC prepared recombinantly in E. coli; amyloid protein secreted by P. aeruginosa (protein, UniProt Q9I2F0 25-340, looked up) Functional amyloid subunit …: GNEGGWHPPKPNPQSNNKGGATALVVDTQQNYNNKVSNFGTLNNASVSGSIKDASGNVGVNVAAGDNNQQANAAALASADASFVFGTATASTSVLQSGYGNTLNNYSNPNTASLSNSANNVSGNLGVNVAAGNFNQQKNDLAAAVSNGQYSTAGSAASQTSTGNTTVNSANYAYGGTYVSLKLNADGSYKGTSDQIGDVYLDTWEGQTHPGGSNTGHIDVDSQAQGAKDLNHDGGAFAFKEKGDVDLKGTVSGFIPAIVGFKTPVTNNASLSNSLQNVSGNVGVNIAAGGGNQQSNSLSIAAGCSSCPAGGESLGF", "values": [
      {"measurement": "hydrodynamic radius of FapC fibrils, without Aβ", "setting": "FapC fibrils [5]", "result": "≈ 550 nm"},
      {"measurement": "CD negative peak, FapC fibrils alone", "setting": "FapC fibrils [6]; 50 µM FapC without Aβ, 48 h", "result": 214, "unit": "nm"},
      {"measurement": "random coil content of FapC fibrils, without Aβ", "setting": "FapC fibrils [6]; [7]", "result": 22, "unit": "%"},
      {"measurement": "β‐sheet content of FapC fibrils, without Aβ", "setting": "FapC fibrils [6]; [7]", "result": 47, "unit": "%"},
      {"measurement": "size of amyloid aggregates attached to Caco-2 membrane, without Aβ", "setting": "Caco‐2 cells", "result": "≈ 30 µm"},
      {"measurement": "zeta potential", "setting": "Zeta potential", "result": 47, "unit": "mV"}
    ]},
    {"molecule": "sonicated FapC: Sonicated FapC seeds used as control (protein, UniProt Q9I2F0 25-340, looked up, sonicated fibril seeds, Sonicated FapC seeds used as control) Functional amyloid subunit …: GNEGGWHPPKPNPQSNNKGGATALVVDTQQNYNNKVSNFGTLNNASVSGSIKDASGNVGVNVAAGDNNQQANAAALASADASFVFGTATASTSVLQSGYGNTLNNYSNPNTASLSNSANNVSGNLGVNVAAGNFNQQKNDLAAAVSNGQYSTAGSAASQTSTGNTTVNSANYAYGGTYVSLKLNADGSYKGTSDQIGDVYLDTWEGQTHPGGSNTGHIDVDSQAQGAKDLNHDGGAFAFKEKGDVDLKGTVSGFIPAIVGFKTPVTNNASLSNSLQNVSGNVGVNIAAGGGNQQSNSLSIAAGCSSCPAGGESLGF", "values": [
      {"measurement": "self-seeding of FapC monomers by sonicated seeds", "setting": "FapC monomers", "result": "a significant increase in ThT kinetics was observed"}
    ]},
    {"molecule": "Lecanemab: humanized IgG1 monoclonal antibody that binds with soluble protofibrils of Aβ (antibody, chains of the INN, looked up, V domains shown) VH: EVQLVESGGGLVQPGGSLRLSCSASGFTFSSFGMHWVRQAPGKGLEWVAYISSGSSTIYYGDTVKGRFTISRDNAKNSLFLQMSSLRAEDTAVYYCAREGGYYYGRSYYTMDYWGQGTTVTVSS VL: DVVMTQSPLSLPVTPGAPASISCRSSQSIVHSNGNTYLEWYLQKPGQSPKLLIYKVSNRFSGVPDRFSGSGSGTDFTLRISRVEAEDVGIYYCFQGSHVPPTFGPGTKLEIK", "values": [
      {"measurement": "efficacy in phase 2 clinical trials", "setting": "Aβ; early onset Alzheimer's disease, ref [8]", "result": "limited improvement in cognition and reduced Aβ burden"}
    ]}
  ]
}
